Measured values: patent US20120207760A1 (THERACLONE SCIENCES, published 2012)

B1: TCN-031 Fab fragment (Fab, V domains shown)
VH: EVQLVESGGGLVQPGGSLRISCAASGFTVSSNYMSWVRQAPGKGLEWVSVIYSGGSTYYADSVKGRFSFSRDNSKNTVFLQMNSLRAEDTAVYYCARCLSRMRGYGLDVWGQGTTVTVS
VL: DIQMTQSPSSLSASVGDRVTITCRTSQSISSYLNWYQQKPGKAPKLLIYAASSLQSGVPSRFSGSGSGTDFTLTISGLQPEDFATYYCQQSYSMPAFGQGTKLEIK
B2: TCN-032 Fab fragment (Fab, V domains shown)
VH: QVQLQESGPGLVKPSETLSLTCTVSGSSISNYYWSWIRQSPGKGLEWIGFIYYGGNTKYNPSLKSRVTISQDTSKSQVSLTMSSVTAAESAVYFCARASCSGGYCILDYWGQGTLVTVS
VL: DIQMTQSPSSLSASVGDRVTITCRASQNIYKYLNWYQQRPGKAPKGLISAASGLQSGVPSRFSGSGSGTDFTLTITSLQPEDFATYYCQQSYSPPLTFGGGTRVEIK
B3: TCN-549 (5092_P04) (antibody, V domains shown)
VH: QVQLVQSGAEVKKPGASVKVSCKASGYTFTGYYMHWVRQAPGQGLEWMGWINPNSGDTNYAQKFQGRVTMTRDTSITTAYMELSSLRSDDTAVYYCARDSPYSSSWSFFDYWGQGPLVTVSS
VL: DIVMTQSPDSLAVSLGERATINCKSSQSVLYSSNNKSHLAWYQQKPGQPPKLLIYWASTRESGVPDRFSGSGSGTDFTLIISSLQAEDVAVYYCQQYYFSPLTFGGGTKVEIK
B4: TCN-550 (5096_F06) (antibody, V domains shown)
VH: QVQLQESGPGLVKPSETLSLTCTVSGASINSHYWSWIRQPPGKGLEWIGYVYYSGSTTYNPSLKSRVTLSVDTSKNQFSLNLSSVTAADTAFYYCARHPYDVLTGSGDWFDPWGQGTLVTVSS
VL: SYVLTQAPSVSVAPGQTARITCGGNAIGSKKVHWYQHKAGQAPVLVVYDDTDRPSGIPERFSGSNSWSTATLTINRVEAGDEADYYCQVWDFTIDHVVFGGGTKLTVL
B5: TCN-552 (5249_I23) (antibody, V domains shown)
VH: QVQVVQSGAEVKKPGSSVRVSCQASGGTFMNYAIIWVRRAPGQGLEWMGGIIPVFPTPNYAQMFQGRVTISTDESRSTSFLELTNLRYEDTAVYYCARRIYHGGNSGFDFWGQGTLVTVSS
VL: EIVLTQSPATLSLSPGERATLSCRASQSVGNYLAWYQQKPGQAPRLLIYDSSNRAPGIPARFSGSGSGTDFTLTISSLAPEDFAVYYCQQRSKWPPMYSFGHGTKLEIK
B6: TCN-553 (5261_C18) (antibody, V domains shown)
VH: QVQVVQSGTEVKKPGSSVKVSCQTSGGRFMSYAITWVRQAPGQGLEWMGGIVPVFGTANYAQKFQGRVTITTDDSTRTAYMELSSLRSEDTAVYYCGFRYGSGYGFDSWGQGTLVTVSS
VL: EIVLTQSPGTLSLSPGERATLSCRASQSVSSSYLAWYQKKPGQAPRLLIYGASTRATGIPDRFTGSGSGTDFTLSISRLEPEDFAVYYCQHFGTSVFTFGGGTKVEIK
B7: TCN-555 (5246_L16) (antibody, V domains shown)
VH: QVQLVQSGAEVKRPGSSVKVSCTASGGIFRKNAISWVRQAPGQGLEWMGGIIAVFNTANYAQKFQNRVKITADESGNTAYMELSSLTSDDTAVYYCASHPKYFYGSGSYPDFWGQGTLVTVSS
VL: QSALTQPRSVSGSPGQSITISCTGGSSDIGASNSVSWYQQHPGKAPKLVIFDVTERPSGVPHRFSGSKSGNTASLTVSGLQPDDEADYFCCAYGGKYLVVFGGGTKVTVL
B8: TCN-556 (5089_K12) (antibody, V domains shown)
VH: QVQLVQSGAEVKKPGASVKVSCKASGYTFIGYDMHWVRQAPGQGLEWMGWINAKRGGTNYAQKFQGRVTMTRDTSISTAYMELNSLRSDDTAVYYCARGVGSRTTIFGVLNPEFDYWGQGTLVTVSS
VL: QSALTQPPSASGSPGQSVTISCTGSSSDVGGYDYVSWYQQHPGKAPKLLIYEVTKRPSGVPDRFSGSKSGNTASLTVSGLQAEDEADYYCSSYAGNYNHVFGPGTKVTVL
B9: TCN-557 (5081_A04) (antibody, V domains shown)
VH: QVQLVQSGAEVKKPGASVKVSCKASGHTFTGYYIHWVRQAPGQGLEWMGWINPDSGATSSAQNFQGRVTMTGDTSSSTAYMELSRLSFDDTAVYYCARVLFTSPFDFWGEGTLVTVSS
VL: QAVVTQEPSLAVSPGGTVTLTCGSSTGAVTRGHYPYWFQQKPGQAPRALIYDSAGNRHSWTPARFSGSLLGGKAALTLSGAQPEDEAEYYCLLSYSGVWVFGGGTKLTVL
B10: TCN-560 (5084_P10) (antibody, V domains shown)
VH: EVQLVESGGGLVQPGGSLRLSCAASGFIFRNYWMSWVRQAPGKGLEWVANIKQDGREKYYVDSLRGRVNISRDNAENSLYLHMNSLRVEDTAVYFCARARMVVVTGDGFDVWGHGTMVTVSS
VL: DIQMTQSPSSLSASVGDRVTITCRASQNIKRYFNWYQQKPGKAPKLLIYAASNLENGVPSRFSGSGSGTDFTLTISSLQPEDFATYYCQQSFSKSWTFGQGTNVDIK

Key:
[1] = molecular target: M2 protein of influenza A/Puerto Rico/8/34 (H1N1), on inactivated virus (Influenza A virus A/Puerto Rico/8/34 …, UniProt P06821 1-97); test: surface plasmon resonance, Fab fragment on influenza virus
[2] = molecular target: Hemagglutinin of influenza A/Japan/305/57 (H2N2), on inactivated whole virions (Influenza A virus A/Japan/305/1957 …, UniProt P03451 16-562); test: ELISA, B cell culture supernatant on inactivated whole virions

M2 protein of influenza A/Puerto Rico/8/34 (H1N1), on inactivated virus, sequence (P06821 whole entry, the tested form may be a part): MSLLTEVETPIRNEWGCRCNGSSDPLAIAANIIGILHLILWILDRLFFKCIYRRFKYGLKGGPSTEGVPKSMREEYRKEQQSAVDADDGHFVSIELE

| Binder | Kd [1] | koff [1] | kon [1] | OD450 [2] |
| --- | --- | --- | --- | --- |
| B1 | 14 nM | 0.014 s⁻¹ | 1e+06 M⁻¹ s⁻¹ |  |
| B2 | 3.2 nM | 0.0023 s⁻¹ | 740000 M⁻¹ s⁻¹ |  |
| B3 |  |  |  | 0.08 OD450 |
| B4 |  |  |  | 0.06 OD450 |
| B5 |  |  |  | 0.71 OD450 |
| B6 |  |  |  | 2.54 OD450 |
| B7 |  |  |  | 0.6 OD450 |
| B8 |  |  |  | 2.41 OD450 |
| B9 |  |  |  | 2.7 OD450 |
| B10 |  |  |  | 2.07 OD450 |
